In US20260193366A1 (APOGEE THERAPEUTICS, published 2026):
Where a chain is given by its changes, count along the chain named.

T1: human IL-4Rα (human, UniProt P24394 26-232)
T1 construct: also called Hu IL-4Rα; hIL-4Rα
T1 sequence: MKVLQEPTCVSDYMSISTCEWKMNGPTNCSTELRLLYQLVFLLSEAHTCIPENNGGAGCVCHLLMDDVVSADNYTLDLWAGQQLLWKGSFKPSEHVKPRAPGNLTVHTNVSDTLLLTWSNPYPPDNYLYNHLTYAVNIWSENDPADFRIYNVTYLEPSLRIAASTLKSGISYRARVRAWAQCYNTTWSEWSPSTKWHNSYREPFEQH

T2: cynomolgus monkey IL-4Rα (cynomolgus monkey, UniProt P24394 26-231 (human entry), limits assumed)
T2 construct: also called Cyno IL-4Rα; cyIL-4Rα
T2 chain: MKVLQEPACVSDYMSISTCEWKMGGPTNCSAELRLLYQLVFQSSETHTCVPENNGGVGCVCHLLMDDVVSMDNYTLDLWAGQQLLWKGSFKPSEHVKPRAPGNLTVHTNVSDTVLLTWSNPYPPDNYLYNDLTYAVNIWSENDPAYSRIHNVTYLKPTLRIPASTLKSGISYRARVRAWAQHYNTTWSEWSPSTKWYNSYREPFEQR

T3: hIL-4Rα on cells (human, UniProt P24394 26-825)
T3 sequence: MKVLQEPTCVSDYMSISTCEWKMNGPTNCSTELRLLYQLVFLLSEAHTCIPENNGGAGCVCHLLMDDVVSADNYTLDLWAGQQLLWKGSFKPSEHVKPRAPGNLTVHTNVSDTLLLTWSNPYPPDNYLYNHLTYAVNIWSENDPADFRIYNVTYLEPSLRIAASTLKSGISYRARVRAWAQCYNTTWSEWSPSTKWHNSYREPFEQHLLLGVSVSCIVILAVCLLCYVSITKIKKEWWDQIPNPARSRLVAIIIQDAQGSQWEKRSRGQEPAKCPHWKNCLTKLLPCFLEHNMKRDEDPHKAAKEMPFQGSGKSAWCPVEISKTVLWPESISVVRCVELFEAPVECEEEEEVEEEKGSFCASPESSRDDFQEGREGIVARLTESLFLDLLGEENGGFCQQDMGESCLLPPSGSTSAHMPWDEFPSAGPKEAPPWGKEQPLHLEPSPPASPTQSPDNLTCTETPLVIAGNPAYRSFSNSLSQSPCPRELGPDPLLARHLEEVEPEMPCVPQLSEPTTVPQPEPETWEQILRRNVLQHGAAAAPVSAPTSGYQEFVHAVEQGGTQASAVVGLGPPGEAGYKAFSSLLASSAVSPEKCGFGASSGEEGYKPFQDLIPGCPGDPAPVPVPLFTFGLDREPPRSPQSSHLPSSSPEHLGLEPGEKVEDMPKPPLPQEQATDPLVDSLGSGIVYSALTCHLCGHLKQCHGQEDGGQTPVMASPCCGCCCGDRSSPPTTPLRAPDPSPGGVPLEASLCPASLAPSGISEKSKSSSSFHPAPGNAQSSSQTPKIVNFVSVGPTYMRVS

B1: Construct 29 (mAb437) (antibody, IgG4, V domains shown)
VH: EVQLVESGGGLEQPGGSLRLSCAGSGFTFRDFAMTWVRQAPGKGLEWVSSISGSGGNIYYADSVKGRFTISRDNSKNTLYLQMNSLRAEDTAVYYCAKDRLSVTVRPRYYGLDVWGQGTTVTVSS
VL: DIVMTQSPLSLPVTPGEPASISCTSSQSLLYSIGYNYVDWYLQKSGQSPQLLIYLGNKRASGVPDRFSGSGSGTDFTLKISRVEAEDVGFYYCMQSLTSPYTFGQGTKLEIK
notes: VH/VL only
B2: Construct 3 (mAb412) (antibody, IgG4, V domains shown)
VH: B1 VH with G56S, N57S, I58T, V103I
VL: B1 VL with T24R, S96A, S99T
notes: VH/VL only
B3: Construct 1 (mAb410) (antibody, IgG4, V domains shown)
VH: B1 VH with V103K, V105I
VL: B1 VL with T24R, L29V, N57S, T98D, S99T
notes: VH/VL only
B4: Construct 2 (mAb411) (antibody, IgG4, V domains shown)
VH: B1 VH with V103K, V105I
VL: B1 VL with S25A, N57S, S96A, S99T
notes: VH/VL only

Assays:
human IL-4Rα = molecular target: T1, human IL-4Rα; test: SPR, Carterra LSA;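 further: antibodies captured on an anti-human Fc sensor chip, antigen injected at several concentrations, association and dissociation rates fitted with a 1:1 Langmuir model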
Procedure: (§1) Binding affinity (KD) of antibodies to human and cynomolgus monkey IL-4Rα was determined through surface plasmon resonance (SPR) using a Carterra LSA. Briefly, an HC30M sensor chip that was previously functionalized with a polyclonal mixture of goat anti-human Fc antibody and used to capture purified antibodies at a level between 100-1000 RLU. […] Regeneration of the chip between different concentrations of antigen was performed with 200 mM phosphoric acid and antibody was captured again as previously described. Association and dissociation rate constants were subsequently determined through fitting to a 1:1 Langmuir binding model using the Kinetics Software from Carterra from which a KD value was derived.

cynomolgus monkey IL-4Rα = molecular target: T2, cynomolgus monkey IL-4Rα; test: SPR, Carterra LSA;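 further: antibodies captured on an anti-human Fc sensor chip, antigen injected at several concentrations, association and dissociation rates fitted with a 1:1 Langmuir model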
Procedure: as §1

hIL-4Rα on cells [1] = molecular target: T3, hIL-4Rα on cells; test: cell-based or functional assay
hIL-4Rα on cells [2] = molecular target: T3, hIL-4Rα on cells; test: cell-based or functional assay; remark: listed apart in the source
hIL-4Rα on cells [3] = molecular target: T3, hIL-4Rα on cells; test: cell-based or functional assay; remark: listed apart in the source
hIL-4Rα on cells [4] = molecular target: T3, hIL-4Rα on cells; test: FACS on HEK293 cells, competitor biotin-hIL-4;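 further: HEK293 cells stably co-expressing hIL-13Rα and hIL-4Rα, stained for 1 h at 4 °C, read-out as mean fluorescence intensity by flow cytometry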
Procedure: Briefly, HEK293 previously transduced to stably express both hIL-13Rα and hIL-4Rα were cultured and harvested. Cells were seeded at 200,000 cells in 100 uL per well. Cells were washed and the supernatant discarded. […] The cells were stained in this mixture at 4° C. for 1 hour. […] Cells were incubated 4° C. for 1 hour, protected from light. Cells were then washed and the MFI of cells in each well were recorded by FACS using a BD FACSCanto II. Subsequent data were analyzed using GraphPad Prism.

hIL-4Rα on cells [5] = molecular target: T3, hIL-4Rα on cells; test: FACS on HEK293 cells, competitor biotin-hIL-13;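 further: stably transduced cells co-expressing both receptor chains, stained cold, with cell-bound signal read as mean fluorescence intensity by flow cytometry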

Binder | KD Relative to Dupilumab (human IL-4Rα) | Kd (human IL-4Rα) [nM] | KD Relative to Dupilumab (cynomolgus monkey IL-4Rα) | Kd (cynomolgus monkey IL-4Rα) [nM] | Relative Inhibition of IL-4 induced pSTAT6 IC50 (hIL-4Rα on cells [1]) | Relative Inhibition of IL-13 induced pSTAT6 IC50 (hIL-4Rα on cells [1]) | Relative Inhibition of IL-4 induced TARC IC50 (hIL-4Rα on cells [2]) | Relative Inhibition of IL-13 induced TARC IC50 (hIL-4Rα on cells [2]) | Relative Inhibition of IL-4 induced TF-1 Proliferation IC50 (hIL-4Rα on cells [3]) | Relative Inhibition of IL-13 induced TF-1 Proliferation IC50 (hIL-4Rα on cells [3]) | Relative Blockade of IL-4 Binding IC50 (hIL-4Rα on cells [4]) | Relative Blockade of IL-13 Binding IC50 (hIL-4Rα on cells [5])
B1 | 0.72 | 0.0081 | 0.02 | 15.7 | 0.63 relative to dupilumab | 0.624 relative to dupilumab | 0.693 relative to dupilumab | 1.39 relative to dupilumab | 0.486 relative to dupilumab | 0.851 relative to dupilumab | 0.887 relative to dupilumab | 0.695 relative to dupilumab
B2 | 0.76 | 0.00856 | 0.14 | 85.4 | 0.767 relative to dupilumab | 0.66 relative to dupilumab | 0.521 relative to dupilumab | 0.506 relative to dupilumab | 0.514 relative to dupilumab | 0.683 relative to dupilumab | 0.877 relative to dupilumab | 0.949 relative to dupilumab
B3 | 1.25 | 0.0141 | 0.17 | 107 | 0.592 relative to dupilumab | 0.671 relative to dupilumab | 0.427 relative to dupilumab | 0.485 relative to dupilumab | 0.414 relative to dupilumab | 1.37 relative to dupilumab | 1.1 relative to dupilumab | 0.968 relative to dupilumab
B4 | 1.61 | 0.0181 | 0.1 | 64.2 | 0.507 relative to dupilumab | 0.685 relative to dupilumab | 0.267 relative to dupilumab | 0.314 relative to dupilumab | 0.376 relative to dupilumab | 0.87 relative to dupilumab | 0.799 relative to dupilumab | 0.942 relative to dupilumab
